Test results as given in PMC3366790 (The Journal of Biological Chemistry, 2012).

Target: T1, full-length CDC34 with C191S/C223S substitutions (human, UniProt P49427 1-236, C191S | C223S)
T1 sequence: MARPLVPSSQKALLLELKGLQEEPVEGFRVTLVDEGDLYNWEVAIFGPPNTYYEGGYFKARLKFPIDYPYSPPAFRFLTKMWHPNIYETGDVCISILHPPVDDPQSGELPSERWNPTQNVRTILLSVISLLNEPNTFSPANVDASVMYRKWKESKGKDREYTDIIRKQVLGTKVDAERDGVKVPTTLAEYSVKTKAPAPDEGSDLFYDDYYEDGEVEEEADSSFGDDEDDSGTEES
Assay: NMR titration

B1: sRbx1^12–108 (solubilized human Rbx1/ROC1 residues 12–108 with W27S, V30S, L32Q, W33S) (domain or fragment)
chain: not shown
- Kd: > 1000 µM
